# US11278600B2, “Human alpha-galactosidase variants” (Codexis, Inc., priority 2014, dated 2022)
# Positions count from the first letter of the chain named.
# B1: 68 (protein)
# chain: LDNGLARTPTMGWLHWERFMCNLDCQEEPDSCISEKLFMEMAELMVSEGWKDAGYEYLCIDDCWMAPQRDSEGRLQADPQRFPSGIRQLANYVHSKGLKLGIYADVGNKTCAGFPGSFGYYDIDAQTFADWGVDLLKFDGCYCDSLENLADGYKHMSLALNRTGRSIVYSCEWPLYMWPFQKPNYTEIRQYCNHWRNFADIDDSWKSIKSILDWTSFNQERIVDVAGPGGWNDPDMLVIGNFGLSWNQQVTQMALWAIMAAPLFMSNDLRHISPQAKALLQDKDVIAINQDPLGKQGYQLRQGDNFEVWERPLSGLAWAVAMINRQEIGGPRSYTIAVASLGKGVACNPACFITQLLPVKRKLGFYEWTSRLRSHINPTGTVLLQLENTMQMSKDLLL
# modifications: Synthetic Polypeptide sequence of Variant No. 68 of mature Human GLA
# B2: 76 (protein)
# chain: B1 chain with S84H, K206R, K394L, D395K, L396D
# modifications: Synthetic Polypeptide sequence of Variant No. 76
# B3: 79 (protein)
# chain: B1 chain with S84H, K343G
# modifications: Synthetic Polypeptide sequence of Variant No. 79 of mature Human GLA
# B4: 69 (protein)
# chain: B1 chain with S84H, I102L
# modifications: Synthetic Polypeptide sequence of Variant No. 69 of mature Human GLA
# B5: 78 (protein)
# chain: B1 chain with S84H, K343D
# modifications: Synthetic Polypeptide sequence of Variant No. 78 of mature Human GLA
# B6: 80 (protein)
# chain: B1 chain with S84H, K362Q
# modifications: Synthetic Polypeptide sequence of Variant No. 80 of mature Human GLA
# B7: 81 (protein)
# chain: B1 chain with S84H, K362R
# modifications: Synthetic Polypeptide sequence of Variant No. 81 of mature Human GLA
# B8: 73 (protein)
# chain: B1 chain with S84H, K206A, K394L, D395K, L396D
# modifications: Synthetic Polypeptide sequence of Variant No. 73
# B9: 83 (protein)
# chain: B1 chain with K36E, S84H
# modifications: Synthetic Polypeptide sequence of Variant No. 83 of mature Human GLA
# B10: 74 (protein)
# chain: B1 chain with S84H, K206M
# modifications: Synthetic Polypeptide sequence of Variant No. 74 of mature Human GLA
# B11: 71 (protein)
# chain: B1 chain with S84H, I123T, T369N
# modifications: Synthetic Polypeptide sequence of Variant No. 71 of mature Human GLA
# B12: 77 (protein)
# chain: B1 chain with S84H, K206T, V359S
# modifications: Synthetic Polypeptide sequence of Variant No. 77 of mature Human GLA
# B13: 82 (protein)
# chain: B1 chain with K36D, S84H
# modifications: Synthetic Polypeptide sequence of Variant No. 82 of mature Human GLA
# B14: 70 (protein)
# chain: B1 chain with S84H, I102L, K394V
# modifications: Synthetic Polypeptide sequence of Variant No. 70 of mature Human GLA
# B15: 75 (protein)
# chain: B1 chain with S84H, K206Q
# modifications: Synthetic Polypeptide sequence of Variant No. 75 of mature Human GLA
# B16: 72 (protein)
# chain: B1 chain with S84H, I167V
# modifications: Synthetic Polypeptide sequence of Variant No. 72 of mature Human GLA
# Experiment: HTP-analysis of yeast culture supernatants, no challenge (MUGal hydrolysis)
# Type: biochemical
# Conditions: activity of the variant/activity of WT GLA (SEQ ID NO: 5), yeast supernatant
# Method in brief: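 GLA variants were expressed in INVSc1 yeast grown in SD-Ura broth with glucose at 30° C., and culture supernatants were collected after 66-84 h. Supernatant was mixed with McIlvaine buffer pH 4.8 and MUGal (2 mM stock) in 50 mM citrate, 200 mM KCl, pH 4.6, incubated at 37° C. for 30-180 minutes, then quenched with sodium carbonate.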
row,Molecule,Relative Activity of GLA Variants After No Challenge (NC)
1,B1,+ (+ = 0.5 to 1.5 relative activity over WT GLA (SEQ ID NO: 5))
2,B2,+ (+ = 0.5 to 1.5 relative activity over WT GLA (SEQ ID NO: 5))
3,B3,++ (++ = >1.5 to 2.5 relative activity over WT GLA (SEQ ID NO: 5))
4,B4,+ (+ = 0.5 to 1.5 relative activity over WT GLA (SEQ ID NO: 5))
5,B5,++ (++ = >1.5 to 2.5 relative activity over WT GLA (SEQ ID NO: 5))
6,B6,+ (+ = 0.5 to 1.5 relative activity over WT GLA (SEQ ID NO: 5))
7,B7,+ (+ = 0.5 to 1.5 relative activity over WT GLA (SEQ ID NO: 5))
8,B8,+ (+ = 0.5 to 1.5 relative activity over WT GLA (SEQ ID NO: 5))
9,B9,+ (+ = 0.5 to 1.5 relative activity over WT GLA (SEQ ID NO: 5))
10,B10,+ (+ = 0.5 to 1.5 relative activity over WT GLA (SEQ ID NO: 5))
11,B11,++ (++ = >1.5 to 2.5 relative activity over WT GLA (SEQ ID NO: 5))
12,B12,+ (+ = 0.5 to 1.5 relative activity over WT GLA (SEQ ID NO: 5))
13,B13,+ (+ = 0.5 to 1.5 relative activity over WT GLA (SEQ ID NO: 5))
14,B14,+ (+ = 0.5 to 1.5 relative activity over WT GLA (SEQ ID NO: 5))
15,B15,+ (+ = 0.5 to 1.5 relative activity over WT GLA (SEQ ID NO: 5))
16,B16,+ (+ = 0.5 to 1.5 relative activity over WT GLA (SEQ ID NO: 5))

# Experiment: HTP-analysis of supernatants pretreated with base (MUGal hydrolysis)
# Type: biochemical
# Conditions: challenge at pH 7.1; activity of the variant/activity of WT GLA (SEQ ID NO: 5); yeast supernatant
# Method in brief: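 Fluorescence of released 4-MU (Ex 355 nm, Em 448 nm) after carbonate quench reports MUGal hydrolysis by GLA variants secreted from INVSc1 yeast. Before the acidic (pH 4.3-4.8) 30-180 min reaction at 37° C, supernatants had been pre-incubated at pH 7.0-9.7 for 1-18 h at 37° C.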
row,Molecule,Relative Activity of GLA Variants After Challenge at pH 7.1
1,B1,+ (+ = 0.5 to 1.5 relative activity over WT GLA (SEQ ID NO: 5))
2,B2,++ (++ = >1.5 to 2.5 relative activity over WT GLA (SEQ ID NO: 5))
3,B3,++ (++ = >1.5 to 2.5 relative activity over WT GLA (SEQ ID NO: 5))
4,B4,+ (+ = 0.5 to 1.5 relative activity over WT GLA (SEQ ID NO: 5))
5,B5,++ (++ = >1.5 to 2.5 relative activity over WT GLA (SEQ ID NO: 5))
6,B6,+ (+ = 0.5 to 1.5 relative activity over WT GLA (SEQ ID NO: 5))
7,B7,+ (+ = 0.5 to 1.5 relative activity over WT GLA (SEQ ID NO: 5))
8,B8,++ (++ = >1.5 to 2.5 relative activity over WT GLA (SEQ ID NO: 5))
9,B9,+ (+ = 0.5 to 1.5 relative activity over WT GLA (SEQ ID NO: 5))
10,B10,++ (++ = >1.5 to 2.5 relative activity over WT GLA (SEQ ID NO: 5))
11,B11,++ (++ = >1.5 to 2.5 relative activity over WT GLA (SEQ ID NO: 5))
12,B12,+ (+ = 0.5 to 1.5 relative activity over WT GLA (SEQ ID NO: 5))
13,B13,+ (+ = 0.5 to 1.5 relative activity over WT GLA (SEQ ID NO: 5))
14,B14,+ (+ = 0.5 to 1.5 relative activity over WT GLA (SEQ ID NO: 5))
15,B15,++ (++ = >1.5 to 2.5 relative activity over WT GLA (SEQ ID NO: 5))
16,B16,+ (+ = 0.5 to 1.5 relative activity over WT GLA (SEQ ID NO: 5))

# Experiment: HTP-analysis of supernatants pretreated with acid (MUGal hydrolysis)
# Type: biochemical
# Conditions: challenge at pH 4.2; activity of the variant/activity of WT GLA (SEQ ID NO: 5); yeast supernatant
# Method in brief: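 MUGal hydrolysis was tracked by fluorescence (Ex 355 nm, Em 448 nm) after a 30-180 min reaction at 37° C. in pH 4.8 McIlvaine/citrate buffer, stopped with 1 M sodium carbonate. Beforehand, yeast (INVSc1) culture supernatants carrying GLA variants were held 1-3 h at 37° C. in acidic McIlvaine buffer, pH 3.3-4.3.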
row,Molecule,Relative Activity of GLA Variants After Challenge at pH 4.2
1,B1,++ (++ = >1.5 to 2.5 relative activity over WT GLA (SEQ ID NO: 5))
2,B2,+++ (+++ = >2.5 relative activity over WT GLA (SEQ ID NO: 5))
3,B3,++ (++ = >1.5 to 2.5 relative activity over WT GLA (SEQ ID NO: 5))
4,B4,+ (+ = 0.5 to 1.5 relative activity over WT GLA (SEQ ID NO: 5))
5,B5,++ (++ = >1.5 to 2.5 relative activity over WT GLA (SEQ ID NO: 5))
6,B6,+ (+ = 0.5 to 1.5 relative activity over WT GLA (SEQ ID NO: 5))
7,B7,+ (+ = 0.5 to 1.5 relative activity over WT GLA (SEQ ID NO: 5))
8,B8,+++ (+++ = >2.5 relative activity over WT GLA (SEQ ID NO: 5))
9,B9,++ (++ = >1.5 to 2.5 relative activity over WT GLA (SEQ ID NO: 5))
10,B10,+++ (+++ = >2.5 relative activity over WT GLA (SEQ ID NO: 5))
11,B11,+ (+ = 0.5 to 1.5 relative activity over WT GLA (SEQ ID NO: 5))
12,B12,++ (++ = >1.5 to 2.5 relative activity over WT GLA (SEQ ID NO: 5))
13,B13,+ (+ = 0.5 to 1.5 relative activity over WT GLA (SEQ ID NO: 5))
14,B14,+ (+ = 0.5 to 1.5 relative activity over WT GLA (SEQ ID NO: 5))
15,B15,+++ (+++ = >2.5 relative activity over WT GLA (SEQ ID NO: 5))
16,B16,+ (+ = 0.5 to 1.5 relative activity over WT GLA (SEQ ID NO: 5))
